Results on 5 variants are retold here after IntAct's records for PubMed 18524952.

First the molecules themselves.
B1: DNA replication licensing factor MCM3 (Mus musculus), P25206 (parent)
chain: MAGTVVLDDVELREAQRDYLDFLDDEEDQGIYQNKVRELISDNQYRLIVSVNDLRRKNEKRANRLLNNAFEELVAFQRALKDFVASIDATYAKQYEEFYIGLEGSFGSKHVSPRTLTSCFLSCVVCVEGIVTKCSLVRPKVVRSVHYCPATKKTIERRYSDLTTLVAFPSSSVYPTKDEENNPLETEYGLSVYKDHQTITIQEMPEKAPAGQLPRSVDVILDDDLVDKVKPGDRIQVVGTYRCLPGKKGCYTSGTFRTVLIACNVKQMSKDIQPAFSADDIAKIKKFSKTRSKDVFEQLARSLAPSIHGHDYVKKAILCLLLGGVERELENGSHIRGDINILLIGDPSVAKSQLLRYVLCTAPRAIPTTGRGSSGVGLTAAVTTDQETGERRLEAGAMVLADRGVVCIDEFDKMSDMDRTAIHEVMEQGRVTIAKAGIHARLNARCSVLAAANPVYGRYDQYKTPMENIGLQDSLLSRFDLLFIMLDQMDPEQDREISDHVLRMHQYRAPGEQDGDALPLGSSVDILATDDPDFTQDDQQDTRIYEKHDSLLHGTKKKKEKMVSAAFMKKYIHVAKIIKPTLTQESAAYIAEEYSRLRSQDSMSSDTARTSPVTARTLETLIRLATAHAKARMSKTVDLQDAEEAVELVQYAYFKKVLEKEKKRKKASEDESDLEDEEEKSQEDTEQKRKRRKTHAKDGESYDPYDFSEAETQMPQVHTPKTDDSQEKTDDSQETQDSQKVELSEPRLKAFKAALLEVFQEAHEQSVGMLHLTESINRNREEPFSSEEIQACLSRMQDDNQVMVSEGIVFLI
partner: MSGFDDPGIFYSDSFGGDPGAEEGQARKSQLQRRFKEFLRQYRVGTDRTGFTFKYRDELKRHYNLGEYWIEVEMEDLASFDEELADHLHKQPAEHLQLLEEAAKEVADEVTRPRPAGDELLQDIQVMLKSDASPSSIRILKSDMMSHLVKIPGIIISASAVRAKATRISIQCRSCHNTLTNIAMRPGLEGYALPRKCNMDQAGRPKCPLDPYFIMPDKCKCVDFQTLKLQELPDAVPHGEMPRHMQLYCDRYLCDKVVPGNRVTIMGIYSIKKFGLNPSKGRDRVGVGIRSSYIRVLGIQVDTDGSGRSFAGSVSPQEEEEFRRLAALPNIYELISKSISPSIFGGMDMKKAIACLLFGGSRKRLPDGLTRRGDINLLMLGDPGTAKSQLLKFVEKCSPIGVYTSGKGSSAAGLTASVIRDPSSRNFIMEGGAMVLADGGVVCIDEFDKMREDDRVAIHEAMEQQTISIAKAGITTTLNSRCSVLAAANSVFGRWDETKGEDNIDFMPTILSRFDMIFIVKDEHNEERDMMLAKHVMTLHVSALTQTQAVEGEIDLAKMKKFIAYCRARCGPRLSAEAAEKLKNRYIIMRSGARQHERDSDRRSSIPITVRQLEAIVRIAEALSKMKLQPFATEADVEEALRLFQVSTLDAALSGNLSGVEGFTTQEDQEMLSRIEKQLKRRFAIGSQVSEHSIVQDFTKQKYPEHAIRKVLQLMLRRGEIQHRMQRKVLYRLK
B2: DNA replication licensing factor MCM3 (Mus musculus), P25206 (parent)
chain: B1 chain

One assay covers variants of B1. Particulars: with mcm5_mouse Mcm5, P49718.
Turning to S112A;T719A, the “effect of a mutation on the interaction” value is given as “decreasing interaction”.

With S112A, the “effect of a mutation on the interaction” value was “decreasing interaction”. In the case of S112A;S611A, the “effect of a mutation on the interaction” value was “decreasing interaction”.

Regarding S112A;T464A;S611A;T719A, the “effect of a mutation on the interaction” value was “disrupting interaction”.

Variants of B2 are the subject of a further assay. The settings on record: with mcm2_mouse Mcm2, P97310.
Sequence of mcm2_mouse Mcm2, P97310 (P97310 whole entry): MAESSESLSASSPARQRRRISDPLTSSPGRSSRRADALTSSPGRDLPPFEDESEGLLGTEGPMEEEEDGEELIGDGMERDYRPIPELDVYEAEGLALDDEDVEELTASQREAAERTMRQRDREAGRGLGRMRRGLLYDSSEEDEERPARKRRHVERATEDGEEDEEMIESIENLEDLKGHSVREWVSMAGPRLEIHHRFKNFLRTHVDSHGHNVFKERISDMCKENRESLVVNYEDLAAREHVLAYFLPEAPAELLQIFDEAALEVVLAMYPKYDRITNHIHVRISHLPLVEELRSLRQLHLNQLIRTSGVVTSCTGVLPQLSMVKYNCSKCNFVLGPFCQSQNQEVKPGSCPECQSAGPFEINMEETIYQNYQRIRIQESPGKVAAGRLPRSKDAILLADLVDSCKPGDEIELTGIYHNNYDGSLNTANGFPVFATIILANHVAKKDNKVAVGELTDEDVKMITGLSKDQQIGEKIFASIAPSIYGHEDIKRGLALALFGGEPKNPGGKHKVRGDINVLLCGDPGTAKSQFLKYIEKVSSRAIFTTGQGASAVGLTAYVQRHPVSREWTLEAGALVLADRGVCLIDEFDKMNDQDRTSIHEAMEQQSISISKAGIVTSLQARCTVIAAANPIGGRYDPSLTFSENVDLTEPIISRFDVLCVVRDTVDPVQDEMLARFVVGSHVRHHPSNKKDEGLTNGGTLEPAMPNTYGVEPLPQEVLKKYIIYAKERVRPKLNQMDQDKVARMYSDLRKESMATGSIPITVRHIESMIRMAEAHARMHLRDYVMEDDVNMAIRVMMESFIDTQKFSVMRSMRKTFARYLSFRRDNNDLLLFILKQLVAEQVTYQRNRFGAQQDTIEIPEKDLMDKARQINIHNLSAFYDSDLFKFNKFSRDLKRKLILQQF
With S112A, the “effect of a mutation on the interaction” value was “disrupting interaction”.

In another assay the parent is B2. The settings on record: with mcm7_mouse Mcm7, Q61881.
Sequence of mcm7_mouse Mcm7, Q61881 (Q61881 whole entry): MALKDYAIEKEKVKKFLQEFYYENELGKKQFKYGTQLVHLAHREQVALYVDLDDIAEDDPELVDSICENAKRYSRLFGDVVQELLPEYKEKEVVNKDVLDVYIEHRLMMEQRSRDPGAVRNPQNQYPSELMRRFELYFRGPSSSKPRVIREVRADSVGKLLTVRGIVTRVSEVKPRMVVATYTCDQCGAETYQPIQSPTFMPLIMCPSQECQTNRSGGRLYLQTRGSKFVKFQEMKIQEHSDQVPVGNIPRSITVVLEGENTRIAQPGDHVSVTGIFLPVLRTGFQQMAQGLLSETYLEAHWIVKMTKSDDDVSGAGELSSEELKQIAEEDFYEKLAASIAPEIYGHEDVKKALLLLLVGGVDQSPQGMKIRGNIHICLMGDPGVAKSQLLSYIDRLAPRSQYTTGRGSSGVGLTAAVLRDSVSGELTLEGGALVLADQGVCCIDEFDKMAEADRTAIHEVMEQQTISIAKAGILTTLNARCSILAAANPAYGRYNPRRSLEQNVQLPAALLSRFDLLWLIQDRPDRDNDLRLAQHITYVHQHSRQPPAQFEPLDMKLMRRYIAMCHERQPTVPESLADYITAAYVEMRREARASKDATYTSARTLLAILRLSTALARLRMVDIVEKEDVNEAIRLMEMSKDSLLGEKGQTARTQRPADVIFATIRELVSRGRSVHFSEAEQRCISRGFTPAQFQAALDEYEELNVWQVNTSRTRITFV
As to S112A, the “effect of a mutation on the interaction” value is given as “disrupting interaction”.
